Experimental findings from patent US20210309710A1 (DAEWOONG PHARMACEUTICAL, published 2021) are described below.

This test addresses Recombinant human serum albumin (human, UniProt P02768 25-609). The test is described as follows: SPR (BIACORE 3000), recombinant HSA immobilized on CM5 chip. On the procedure: To measure the binding affinities of the ABD-fused insulin analogue proteins for albumin, a surface plasmon resonance (SPR, BIACORE 3000, GE healthcare) analysis method was used. Recombinant human serum albumin was immobilized on a CM5 chip by an amine coupling method, and the ABD or ABD-fused insulin analogues diluted to five or more concentrations were bound thereto, and the affinities thereof for the human serum albumin were measured.

Chain of Recombinant human serum albumin (P02768 25-609 limits assumed): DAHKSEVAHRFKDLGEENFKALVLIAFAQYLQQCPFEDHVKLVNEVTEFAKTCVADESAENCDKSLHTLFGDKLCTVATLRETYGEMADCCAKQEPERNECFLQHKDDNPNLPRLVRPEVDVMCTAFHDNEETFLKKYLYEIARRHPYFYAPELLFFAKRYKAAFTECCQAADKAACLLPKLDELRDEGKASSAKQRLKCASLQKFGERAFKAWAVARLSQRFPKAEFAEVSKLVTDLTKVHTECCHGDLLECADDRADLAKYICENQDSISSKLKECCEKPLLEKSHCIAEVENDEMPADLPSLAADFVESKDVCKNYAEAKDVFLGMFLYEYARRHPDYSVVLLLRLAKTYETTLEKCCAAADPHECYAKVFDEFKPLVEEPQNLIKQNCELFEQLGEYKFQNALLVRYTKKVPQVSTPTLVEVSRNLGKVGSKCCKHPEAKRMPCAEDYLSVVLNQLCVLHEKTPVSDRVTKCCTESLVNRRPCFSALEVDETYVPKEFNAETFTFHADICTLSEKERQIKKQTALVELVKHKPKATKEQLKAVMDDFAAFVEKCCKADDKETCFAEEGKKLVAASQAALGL

As to LAEAKEAANAELDSYGVSDFYKKLIDKAKTVEGVEALKDAILAALP (designed binder) [albumin-binding domain (ABD)], the equilibrium dissociation constant (Kd) came to 7.29 pM, the koff amounted to 2.41e-05 s⁻¹ and the kon is 5.93e+06 M⁻¹ s⁻¹.

The term Kd denotes the free concentration of one partner at which half of the binding sites on the other are occupied at equilibrium, for simple one-to-one binding. Usually koff stands for a measure of how fast the partners let go of each other. As usually defined, the kon is the second-order rate constant of association.
